Measurements from paper PMC5749897.

Tests used:
[1] = target: E1E2 S432A (H77 alanine-scanning library clone) (hepatitis C virus genotype 1a, strain H77); test: flow cytometry on cells
[2] = target: E1E2 Y443A (H77 alanine-scanning library clone) (hepatitis C virus genotype 1a, strain H77); test: flow cytometry on cells

B1: monoclonal antibody AR3C (antibody, V domains shown)
VH: VQLLEQSGAEVKKPGSSVKVSCETSGGTFDNYALNWVRQAPGQGLEWIGGVVPLFGTTRNAQKFQGRVTISDDKSTGTGHMELRSLRSEDTAVYYCVRSVTPRYCGGGFCYGEFDYWGQGTLVTVSS
VL: EIELTQSPATLSVSPGERATLSCRASQSVSSNLAWYQQKPGQAPRLLIYGASTRATGIPARFSGSGSGTEFTLTVSRLEPEDSAVYFCQQYYRSPLTFGGGTKVEIK
% reactivity (of wild type) [1]: 55%
% reactivity (of wild type) [2]: 15%
